Measured values: US20220112295A1 (Novo Nordisk, published 2022)
Numbering of substitutions follows the chain as printed.

How the values were obtained:
[1] = target: T1, native human CD30L expressed on Ramos cells (human, UniProt P32971 1-234); test: FACS Kd method on Ramos cells, equilibrium, KinExA n-curve analysis
T1 construct: It is used here for the native protein on human B cell lines; also called huCD30L; Native huCD30L
T1 sequence: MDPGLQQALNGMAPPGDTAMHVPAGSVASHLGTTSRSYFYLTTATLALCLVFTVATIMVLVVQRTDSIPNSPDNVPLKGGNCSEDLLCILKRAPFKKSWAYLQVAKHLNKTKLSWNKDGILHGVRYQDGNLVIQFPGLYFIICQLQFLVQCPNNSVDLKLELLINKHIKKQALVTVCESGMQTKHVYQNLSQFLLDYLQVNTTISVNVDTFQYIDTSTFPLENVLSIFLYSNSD
Procedure: Binding affinity of CD30L antibodies to CD30L expressed on Ramos cells were determined by FACS Kd method. The Ramos cells were cultured in RMPI1640 media+10% FBS+L-glut+0.05% azide. Two equilibrium reactions were set up where the antibodies were titrated 1:3 from 60 nM to […] using cell culture media and incubated with two different constant cell concentrations (25000 and 250000 cells). The plates were sealed with parafilm and incubated at 37° C., 20 h, shaking. The equilibrium plates were centrifuged and cell pellets were washed twice with ice cold FACS buffer (1× D-PBS+2% FBS). The cells were then incubated with a secondary antibody goat anti-human Fe Cy5 (Jackson Immuno Research, West Grove, Pa.) and with 7AAD (BD-Biosciences, Rockville, Md.) for 1 h on ice in the dark. Following the incubation, the cells were washed twice with ice-cold FACS buffer before flow cytometry analysis. The GeoMean values of FL4 shift gated on live cell population measure the bound [Ab]. The inverse of the GeoMean values that reflects theoretical free [Ag] in the equilibrium solution was then calculated. The inverse values of the GeoMean read were used in KinExA software for analysis and Kd calculation for each antibody. The free [Ag] measure was plotted against the starting concentration of titrating component and from these plots at two different cell concentrations the Kd was obtained from curve fitting using n-curve analysis in KinExA™ Pro software. The 95% confidence interval is given as Kd low and Kd high.

[2] = target: T1, native human CD30L expressed on Ramos …; test: FACS, antibody at 50 ug/mL, inhibition of huCD30.Fc-His binding to Ramos cells
Procedure: The antibodies were also screened for ability to block binding of human CD30L to a soluble human CD30. c molecule. Briefly, human Ramos cells or activated cynomolgus monkey T cells were incubated with anti-CD30L IgGs at 50 μg/mL in blocking buffer for 30 minutes at 4° C. Soluble huCD30. Fc-His was then added at a final concentration of 2.5 ug/mL (30 μL/well) and incubated for 30 minutes at 4° C. Cells were washed ×2 with PBS and incubated with 5 μg/mL of a mouse anti-His monoclonal antibody (30μL/well in blocking buffer) and incubated for 30 minutes at 4° C. After washing ×2 with PBS, cells were incubated with anti-mouse IgG-PE (1:50 in PBS; BD Pharmingen, San Diego, Calif.) for a further 30 minutes at […]. Cells were then washed ×2 with PBS and prepared for FACs analysis.

[3] = target: T2, native cynomolgus monkey CD30L on activated T cells (cynomolgus monkey, UniProt A0A7N9CVX7 1-234); test: FACS, native cyno CD30L on activated cynomolgus T cells
T2 construct: whole, on cells; also called cynomologous CD30L
T2 sequence: T1 sequence with A19T, M20T, G32E, L41F, V75I, K78R, I204V, I227V
Procedure: The antibodies were rescreened for binding to native human and cynomologous monkey CD30L. Briefly, human Burkitt's lymphoma Ramos cells (3×10⁵/well) were incubated in round-bottomed 96-well microtiter plates (Costar® 96 well plate (Corning; Acton, Mass.) with a titration (10 μg/mL to 3.2 ng/mL final concentration) of anti-CD30L IgG antibodies in blocking buffer (PBS containing 0.02% sodium azide, 2% normal goat serum and 1% normal rabbit serum). Human […] fusion protein was included as a positive control for binding. Cells were incubated for 30 minutes at 4° C. then washed ×2 with PBS and incubated for a further 30 minutes at 4° C. with 30 μL/well of anti-hu IgG-biotin (1:50 in blocking buffer; Jackson Immunoresearch, West Grove, Pa.). After washing ×2 with PBS, cells were incubated for 30 minutes at 4° C. with 30 μL/well (1:50 dilution in PBS) of Streptavidin-Phycoerythrin (PE; Molecular Probes, Eugene, Oreg.). Cells were washed 2× with PBS and prepared for FACs analysis.
Cynomologous activated T cells were prepared by isolating peripheral blood mononuclear cells (PBMC) from heparinized cynomolgus monkey blood by density centrifugation over Isolymph (2000 rpm. for 20 minutes). PBMC were resuspended in 25 mLs of PBS, added to 300 μl of a 50% solution of 2-Aminoethylisothiouronium bromide (AET)-treated sheep erythrocytes and centrifuged at […] at 4° C. for 10 minutes. Pelleted cells were incubated at 4° C. for a further 20 minutes, gently resuspended and centrifuged over Isolymph. Supernatant was removed down to the T cell/erythrocyte pellet. The pellet was then resuspended in 25 mL of lyses buffer (0.85% ammonium chloride in water) and incubated at 37° C. for 10 minutes. The resultant T cells were pelleted and washed x2 in culture medium (RPMI-1640 medium +10% heat-inactivated fetal bovine serum) and then cultured ([…]) at 37° C. for 18 hr in the presence of 10 ng/mL Phorbol Myristate Acetate (PMA; Sigma Chemicals, St Louis, Mo.) and 500 ng/mL lonornycin (Calbiochem, San Francisco, Calif.). At the end of the culture period, cynomolgus T cells were counted and washed 1× with PBS and incubated with 2% Goat serum, 1% Rabbit serum and 0.1% Human serum in PBS for 30 minutes at […]. Cells were then stained with anti-huCD30L antibodies as described above for human Ramos cells.

B1: Antibody A (antibody, V domains shown)
VH: QVQLQESGPGLVKPSETLSLTCTVSGGSISSYIWSWIRQPAGKGLEWIGRIYASGNTNYNPSLKSRVTMSVDTSKNQFSLKLSSMTAADTAVYYCARDYRVAGTYYYYYGLDVWGQGTTVTVSS
VL: QSALTQPASVSGSPGQSITISCTGTSSDVGVYDYVSWYQQHPGKAPKLMIYEVSNRPSGVSNRFSGSKSGNTASLTISGLQTEDEADYYCSSYTSRSTWVFGGGTKLTVL
notes: Human antibody (XenoMouse); also called mAb A; anti-hCD30L A
- Kd [1]: 0.0255 nM
- % inhibition [2]: 68%
- EC50 [3]: 2.2 nM

B2: Antibody F (antibody, V domains shown)
VH: QVQLQESGPGLVKPSETLSLTCTVSGGSISSYYWSWIRQPAGKGLEWIGRIFASGSTNYNPSLRSRVTMSRDTSKNQFSLKLSSVTAADTAVYYCAKERVGVQDYYHYSGMDVWGQGTTVTVSS
VL: B1 VL with V31L, D33N, H41Q, N55K, K68T, T82A, E83D, Y89S, R96S
notes: also called mAb F
- Kd [1]: 0.0357 nM
- EC50 [3]: 2.9 nM

B3: Antibody B (antibody, V domains shown)
VH: QVQLQESGPGLVKPSETLSLTCTVSGGSISSYYWTWIRQPAGKGLEWIGRIYTSGITNYNPSLKSRVTMSVDTSKNQFSLKLSSVTAADTAVYYCARERVVGASRYYYYGVDVWGQGTTVTVSS
VL: B1 VL with V31L, D33N, G43D, Y51F, S54N, K68N, T82A, R96S
notes: also called mAb B
- Kd [1]: 0.00743 nM
- % inhibition [2]: 70%
- EC50 [3]: 4 nM

B4: Antibody D (antibody, V domains shown)
VH: QVQLQESGPGLVKPSETLSLTCTVSGGSISSYSWSWIRQPAGKGLEWIGRTSTSGRNNYNPSLKSRVTMSVDTSKNQFSLKLNSVTAADTAVYYCARDFTIAARRYYYYGMDVWGQGTTVTVSS
VL: B1 VL with V29I, V31L, D33N, M49I, S54I, K68E, T82A, D87N, R96S
notes: also called mAb D
- Kd [1]: 0.0119 nM
- % inhibition [2]: 55%
- EC50 [3]: 2.7 nM

B5: Antibody C (antibody, V domains shown)
VH: B3 VH
VL: QSALTQPASVSGSPGQSITISCTGTSSDIGLYDYVSWYQQHPDRAPKLIIFEVNNRPSGVSYRFSGSNSGNTASLTISGLQAEDEADYYCSSYTSSSTWVFGGGTKLTVL
notes: also called mAb C
- Kd [1]: 0.044 nM
- % inhibition [2]: 88%
- EC50 [3]: 1 nM

B6: Antibody E (antibody, V domains shown)
VH: QVQLQESGPRLVKPSETLSLTCTVSGGSITNNYWSWIRQPAGKGLEWIGRVYSSGLTNYKPSLKSRVTMSVDTSKNQFSLRLNSVTAADTAVYYCARERATVTTRYHYDGMDVWGQGTSVTVSS
VL: QSALTQPASVSGSPGQSITISCTGSSSDIGTYNYVSWYQQYPGKAPELMIYEVNNRPSGVSDRFSGSTSGNTASLTISGLQANDEADYYCSSYSSSSTWVFGGGTKLTVL
notes: also called mAb E
- Kd [1]: 0.0521 nM
- % inhibition [2]: 80%
- EC50 [3]: 2.7 nM
